Results published in patent US20160369008A1 (Astellas, published 2016).

Legend:
[1] = biological target: T1, human PAI-1 in complex with tPA (human, UniProt P05121 24-402; P00750 36-562); assay: ELISA, tPA-PAI-1 complex on the plate
T1 construct: tPA was coated on the plate and active PAI-1 was captured on it; also called tPA-PAI-1 complex; Human tPA-PAI-1

[2] = biological target: T2, human PAI-1 in complex with uPA (human, UniProt P05121 24-402; P00749 21-431, limits assumed); assay: ELISA, uPA-PAI-1 complex on the plate
T2 construct: uPA was coated on the plate and active PAI-1 was captured on it; also called uPA-PAI-1 complex; Human uPA-PAI-1

latent human PAI-1 = biological target: T3, latent human PAI-1 (human, UniProt P05121 24-402); assay: ELISA, latent human PAI-1 on the plate
T3 construct: Same protein as active PAI-1 but in the latent conformation; also called recombinant latent human PAI-1; latent PAI-1

[3] = biological target: T4, active human PAI-1 in complex with vitronectin (human, UniProt P05121 24-402; P04004 20-478); assay: ELISA, VTN-PAI-1 complex on the plate; 100% set to the signal of MA56-A7C10 at its maximum concentration
T4 construct: Vitronectin was coated on the plate and active PAI-1 was captured on it; also called VTN-PAI-1 complex; VTN-PAI-1

[4] = biological target: recombinant active human PAI-1 (human, UniProt P05121 24-402); assay: cell-based or functional assay
[5] = biological target: T4, active human PAI-1 in complex with …; assay: ELISA, VTN-PAI-1 complex on the plate
Method: An HRP-labeled goat anti-mouse Ig antibody (Southern Biotech, 1010-05) for the detection of a test antibody having an Fe region of a mouse antibody and an HRP-labeled rabbit anti-human Ig antibody (Southern Biotech, 6145-05) for the detection of a test antibody having an Fc region of a human antibody are used as the detection antibody. After incubation at room temperature for 30 minutes, the plates were washed three times with a washing solution. A color developing solution contained in a peroxidase color development kit (Sumitomo Bakelite Co., Ltd.) was added at 100 μL/well, followed by allowing to stand at room temperature for about 15 minutes, 100 μL of a reaction stop solution contained in the color development kit was added, and then the OD450 value was measured using an EnVision counter (PerkinElmer Co., Ltd.).
For each plate, the test of each antibody was carried out in duplicate, and the average value was calculated. In connection with the calculation of a PAI-1 binding rate at each concentration of each antibody, the measurement value of a well to which 0.1% BSA-containing PBS had been added instead of an antibody was taken to be 0%, and the measurement value of the maximum concentration in each antibody was set to 100%. […] The calculated PAI-1 binding rate was analyzed to calculate EC50 values of the antibodies by four-parameter logistic curve regression.

[6] = biological target: active monkey PAI-1 in complex with vitronectin (monkey); assay: ELISA, VTN-monkey PAI-1 complex on the plate
[7] = biological target: T5, active PAI-1 in human plasma (human, UniProt P05121 24-402); assay: ELISA: inhibition of the capture of active PAI-1 of human plasma on immobilised uPA
T5 construct: Native protein in diluted plasma; also called human plasma-derived active PAI-1; active human PAI-1 in the plasma
Method: After the blocking agent in the assay plate was removed by reverse centrifugation, the pre-incubated plasma-antibody mixtures, the calibration curve sample, and the control sample were added at 100 μL/well to the assay plate which was then allowed to stand at room temperature for 30 minutes. The plate was washed three times with a washing solution (0.05% Tween-20-containing TBS), and anti-PAI-1 antibodies (Progen Biotechnik, MA-33H1F7) diluted 3,000-fold with a blocking agent (NACALAI TESQUE, INC., 03953-95) solution which had been diluted 20-fold in PBS were added thereto at 100 μL/well. […] An alkaline phosphatase substrate (Chemiluminescent AP; SurModics, APU4-0100-01) 5-fold diluted in a 0.1 mM magnesium chloride aqueous solution containing 2 mM Tris (pH 9.8) was added at 100 μL/well, and the signal value was measured using an EnVision counter (PerkinElmer Co., Ltd.).
The concentration of active human PAI-1 was calculated using a calibration curve. The test was carried out in duplicate for each antibody, and the average value was calculated. […] The calculated active human PAI-1 inhibitory rate was analyzed to calculate IC50 values of the antibodies by four-parameter logistic curve regression.

[8] = biological target: T5, active PAI-1 in human plasma; assay: ELISA: inhibition of the capture of active PAI-1 of human plasma on immobilised uPA (Example 9)
Method: (§1) The evaluation of an inhibitory activity on active PAI-1 in human plasma was carried out according to the method of Example 5. The evaluation of an inhibitory activity on active PAI-1 in monkey plasma was carried out using monkey plasma instead of human plasma in the method described in Example 5. With regard to the monkey plasma, the plasma was diluted using 0.1% BSA-containing PBS, such that the monkey plasma was diluted 120-fold when a plasma-antibody mixture was prepared. For both of two evaluation systems, the final concentration of each antibody was used in a range from 300 ng/mL to 0.3 ng/mL (7-step dilution). As a calibration curve sample, recombinant active human PAI-1 (Molecular Innovations Inc., PAI-A) was used which had been diluted in 7 steps in a range from 3000 pg/mL to 3 pg/mL with 0.1% BSA-containing PBS.
(§2) The concentration of each active PAI-1 was calculated using a calibration curve. The test was carried out in duplicate for each antibody, and the average value was calculated. […] Each of the calculated active PAI-1 inhibitory rates was analyzed to calculate IC50 values of the antibodies by four-parameter logistic curve regression.

[9] = biological target: T6, active PAI-1 in monkey plasma (cynomolgus monkey, UniProt G7P138 24-402); assay: ELISA: inhibition of the capture of active PAI-1 of monkey plasma on immobilised uPA (Example 9)
T6 construct: Native protein in diluted plasma
Method: as §1, §2

Chain of active monkey PAI-1 in complex with vitronectin (monkey) (P04004 20-478, one chain of several): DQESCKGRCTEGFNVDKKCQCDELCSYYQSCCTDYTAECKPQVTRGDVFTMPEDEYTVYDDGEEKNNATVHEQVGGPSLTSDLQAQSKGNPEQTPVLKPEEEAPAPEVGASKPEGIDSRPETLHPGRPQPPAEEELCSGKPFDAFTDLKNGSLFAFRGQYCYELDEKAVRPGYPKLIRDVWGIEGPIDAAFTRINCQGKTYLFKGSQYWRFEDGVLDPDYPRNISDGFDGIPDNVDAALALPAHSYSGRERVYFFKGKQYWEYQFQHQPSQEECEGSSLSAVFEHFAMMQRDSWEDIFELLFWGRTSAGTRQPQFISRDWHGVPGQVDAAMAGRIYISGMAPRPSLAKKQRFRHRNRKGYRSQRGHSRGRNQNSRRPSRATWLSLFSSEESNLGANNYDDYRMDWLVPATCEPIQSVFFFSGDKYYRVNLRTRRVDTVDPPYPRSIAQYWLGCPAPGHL

Row | Binder | EC50 [1] [µg/mL] | EC50 [2] [µg/mL] | EC50 (latent human PAI-1) [µg/mL] | EC50 [3] [µg/mL] | EC50 value, taking the activity of uPA as an indicator (cleavage of a fluorogenic uPA substrate peptide) [4] [µg/mL] | EC50 [5] [µg/mL] | EC50 [6] [µg/mL] | IC50 [7] [µg/mL] | IC50 [8] [µg/mL] | IC50 [9] [µg/mL]
1 | MA-33B8 (antibody, V domains shown) VH: not shown VL: DIVMTQSPSSLAVSVGEKVTMSCKSSQSLLNIIKQKNCLAWYQQKPGQSPKLLIYWASTRESGVPDRFTGSGSGTDFTLTISSVKAEDLAVYYCQQYYSYPYTFGGGTKLEIK | 0.0228 | 0.0129 | 0.64 | 5.68 |  |  |  |  |  | 
2 | fully human HOT-1 (antibody, human IgG1, kappa, V domains shown, Human Ig gamma1 / human kappa constant regions; also called fully human antibody of HOT-1; fully human HOT-1 antibody) VH: EVQLVESGGGVVRPGGSLRLSCAASGFTFDDHGMTWVRQAPGKGLEWVSGINWNGARTVYADSVKGRFTISRDNAKNSLYLHLISLRAEDTALYHCARDRGLGLFDYWGQGTLVTVSS VL: DIQMTQSPSTLSASVGDRVTITCRASQSISSWLAWYQQKPGKVPKILIYKASRLESGVPSRISGSGSGTEFTLTISSLQPDDFATYYCQQYNGYSYTFGQGTKLEIKR |  |  |  |  | 0.0127 | 0.0042 | 0.0036 | 0.006 | 0.0042 | 0.037
3 | HOT-1 (chimeric antibody) (antibody, V domains shown) VH: EVQLVESGGGVVRPGGSLRLSCAASGFTFDDHGMTWVRQAPGKGLEWVSGINWNGARTVYADSVKGRFTISRDNAKNSLYLHLISLRAEDTALYHCARDRGLGLFDYWGQGTLVTVSS VL: DIQMTQSPSTLSASVGDRVTITCRASQSISSWLAWYQQKPGKVPKILIYKASRLESGVPSRISGSGSGTEFTLTISSLQPDDFATYYCQQYNGYSYTFGQGTKLEIKR |  |  |  |  |  |  |  | 0.0113 |  | 
4 | MA-33H1F7 (antibody, V domains shown) VH: QVQLQQSGAEVVKPGASVKLACTASGFNIKDTYIHWVKQGPEQGLEWIGRIDPANGNTKYDSKFQDKATITADTSSNTAYLHLSSLTSEDTAVYYCVRGDYDYVYFDYWGQGTTVTVSS VL: DIQMTQSPSSLSASLGDRVTISCRASQDISNFLDWYQQKPDGTVKLLIYYTSRLHSGVPSRFSGSGSGTDYSLTISKLEQEDIATYFCQQGNTFPPTFGGGTKLEIK | 0.0117 | 0.0127 | 0.0136 |  |  | 0.0143 |  |  |  | 
